Paper PMC10667097 (2023)

Biological target: GST RBX1–CUL1–NEDD8 (human, UniProt Q13616 1-776; P62877 5-108; Q15843 1-76, NEDD8 linked to a specific site in the WHB subdomain | C-terminus linked to the cullin (isopeptide))
Assay: BLI

GST RBX1–CUL1–NEDD8, sequence (Q13616 whole entry, chain 1 of 3): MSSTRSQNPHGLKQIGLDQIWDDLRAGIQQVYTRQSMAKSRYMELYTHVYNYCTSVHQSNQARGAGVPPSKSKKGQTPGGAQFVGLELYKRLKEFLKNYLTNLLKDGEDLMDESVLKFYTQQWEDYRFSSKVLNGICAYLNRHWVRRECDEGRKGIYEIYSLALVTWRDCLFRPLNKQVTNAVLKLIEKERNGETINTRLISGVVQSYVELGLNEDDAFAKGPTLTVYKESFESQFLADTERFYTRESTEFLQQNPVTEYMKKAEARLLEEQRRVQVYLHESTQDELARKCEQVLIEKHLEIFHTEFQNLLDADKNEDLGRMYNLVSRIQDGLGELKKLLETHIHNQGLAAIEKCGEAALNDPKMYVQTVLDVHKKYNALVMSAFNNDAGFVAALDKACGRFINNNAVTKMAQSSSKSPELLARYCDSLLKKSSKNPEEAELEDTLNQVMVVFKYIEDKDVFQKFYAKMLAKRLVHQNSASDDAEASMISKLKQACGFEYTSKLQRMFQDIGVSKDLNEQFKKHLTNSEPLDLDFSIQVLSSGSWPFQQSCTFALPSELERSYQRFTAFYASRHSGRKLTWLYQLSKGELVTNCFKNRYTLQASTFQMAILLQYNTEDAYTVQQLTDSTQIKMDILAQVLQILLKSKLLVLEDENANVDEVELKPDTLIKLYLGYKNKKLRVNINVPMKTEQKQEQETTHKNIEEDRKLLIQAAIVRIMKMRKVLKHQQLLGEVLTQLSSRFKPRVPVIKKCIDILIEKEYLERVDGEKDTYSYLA
GST RBX1–CUL1–NEDD8, sequence (P62877 5-108, chain 2 of 3): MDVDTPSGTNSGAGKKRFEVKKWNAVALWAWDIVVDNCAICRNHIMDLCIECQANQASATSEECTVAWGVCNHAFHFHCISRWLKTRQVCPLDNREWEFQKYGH
GST RBX1–CUL1–NEDD8, sequence (Q15843 1-76, chain 3 of 3): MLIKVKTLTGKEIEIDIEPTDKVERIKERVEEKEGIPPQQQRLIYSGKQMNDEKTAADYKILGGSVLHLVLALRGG

B1: N8C_Fab3b (Fab, V domains shown)
VH: EVQLVESGGGLVQPGGSLRLSCAASGFNFSSSSIHWVRQAPGKGLEWVASISSSYGYTYYADSVKGRFTISADTSKNTAYLQMNSLRAEDTAVYYCARDPFGWAAHGVGLDYWGQGTLVTVSS
VL: DIQMTQSPSSLSASVGDRVTITCRASQSVSSAVAWYQQKPGKAPKLLIYSASSLYSGVPSRFSGSRSGTDFTLTISSLQPEDFATYYCQQSSYSLITFGQGTKVEIK
  Kd: 1.27 nM
